The values below come from US20250339569A1 (3B PHARMACEUTICALS, published 2025).

Starred links: 1 amine or outer side, 2 acyl side, 3 side chain; linkers in the order of their positions; H or OH if unused. Positions of bridges follow the written chain, without caps; N, C: chain ends. Non-standard residues stand in square brackets, D forms with d. Primed or numbered codes have the meaning given here. *: point of attachment. Af3(HO-Glutar) = 3-aminophenylalanine acylated on the ring amine with glutaric acid (free COOH), O=C(CCCC(=O)[*:3])Nc1cccc(C[C@H](N[*:1])C(=O)[*:2])c1; Af3(H-pGlu) = 3-aminophenylalanine with L-pyroglutamyl on the ring amine, O=C1CC[C@@H](C(=O)Nc2cccc(C[C@H](N[*:1])C(=O)[*:2])c2)N1; Af3(Im5) = 3-aminophenylalanine with 1H-imidazole-5-carbonyl on the ring amine, O=C(Nc1cccc(C[C@H](N[*:1])C(=O)[*:2])c1)c1cnc[nH]1; Af3(Oa5) = 3-aminophenylalanine with 1,3-oxazole-5-carbonyl on the ring amine, O=C(Nc1cccc(C[C@H](N[*:1])C(=O)[*:2])c1)c1cnco1; Af3(H2N-Succinyl) = 3-aminophenylalanine with succinamoyl on the ring amine, NC(=O)CCC(=O)Nc1cccc(C[C@H](N[*:1])C(=O)[*:2])c1; Aph(Cp) = 4-aminophenylalanine with cyclopentanecarbonyl on the ring amine, O=C(Nc1ccc(C[C@H](N[*:1])C(=O)[*:2])cc1)C1CCCC1; DOTA(In) = O=C1CN2CCN3CCN(CC(=O)*)CCN(CC2)CC(=O)[O][In]([O]1)[O]C(=O)C3; Phe(3-NHCO(CH2)3SO2NH2) = N[C@@H](Cc1cccc(NC(=O)CCCS(N)(=O)=O)c1)C(=O)O; APAc″ = 2-(4-(amino)piperidin-1-yl)acetic acid, NC1CCN(CC(=O)*)CC1; DOTA = O=C(O)CN1CCN(CC(=O)O)CCN(CC(=O)*)CCN(CC(=O)O)CC1; NGly(3-aminopropyl) = O=C(CN(CCCN[*:3])[*:1])[*:2]; Phe(4-tBu) = CC(C)(C)c1ccc(C[C@H](N)C(=O)O)cc1; Pyridine(2,6-diCH2) = c1cc(C[*:1])nc(C[*:2])c1; mXylylene = c1cc(C[*:1])cc(C[*:2])c1; Orn(Me2) = CN(C)CCC[C@H](N)C(=O)O; αMeL = CC(C)C[C@](C)(N)C(=O)O; AGLU′ = not defined here; Ac6c = NC1(C(=O)O)CCCCC1; Orn = NCCC[C@H](N)C(=O)O; APAc = not defined here; Dab = NCC[C@H](N)C(=O)O; Bn = c1ccc(C*)cc1

B1: 3BP-3888 (peptide)
peptide: Ac-VYCK[dP]DWLEWSC-NH2
modifications: linker 3-12 via mXylylene; lactam 4-9
SMILES: CC(=O)N[C@H](C(=O)N[C@@H](Cc1ccc(O)cc1)C(=O)N[C@H]1CSCc2cccc(c2)CSC[C@@H](C(N)=O)NC(=O)[C@H](CO)NC(=O)[C@H](Cc2c[nH]c3ccccc23)NC(=O)[C@@H]2CCC(=O)NCCCC[C@H](NC1=O)C(=O)N1CCC[C@@H]1C(=O)N[C@@H](CC(=O)O)C(=O)N[C@@H](Cc1c[nH]c3ccccc13)C(=O)N[C@@H](CC(C)C)C(=O)N2)C(C)C
B2: 3BP-4046 (peptide)
peptide: Ac-VYCE[dP]KWLDWSC-NH2
modifications: linker 3-12 via mXylylene; lactam 6-9
SMILES: CC(=O)N[C@H](C(=O)N[C@@H](Cc1ccc(O)cc1)C(=O)N[C@H]1CSCc2cccc(c2)CSC[C@@H](C(N)=O)NC(=O)[C@H](CO)NC(=O)[C@H](Cc2c[nH]c3ccccc23)NC(=O)[C@@H]2CC(=O)NCCCC[C@H](NC(=O)[C@H]3CCCN3C(=O)[C@H](CCC(=O)O)NC1=O)C(=O)N[C@@H](Cc1c[nH]c3ccccc13)C(=O)N[C@@H](CC(C)C)C(=O)N2)C(C)C
B3: 3BP-3901 (peptide)
peptide: Ac-VYCE[dP]EWLKWSC-NH2
modifications: linker 3-12 via mXylylene; lactam 6-9
SMILES: CC(=O)N[C@H](C(=O)N[C@@H](Cc1ccc(O)cc1)C(=O)N[C@H]1CSCc2cccc(c2)CSC[C@@H](C(N)=O)NC(=O)[C@H](CO)NC(=O)[C@H](Cc2c[nH]c3ccccc23)NC(=O)[C@@H]2CCCCNC(=O)CC[C@H](NC(=O)[C@H]3CCCN3C(=O)[C@H](CCC(=O)O)NC1=O)C(=O)N[C@@H](Cc1c[nH]c3ccccc13)C(=O)N[C@@H](CC(C)C)C(=O)N2)C(C)C
B4: 3BP-4052 (peptide)
peptide: {DOTA(In)-APAc}-VYCE[dP]KWLEWSC-NH2
modifications: linker 3-12 via mXylylene; lactam 6-9; reading uncertain; also: indium complexed by DOTA
B5: 3BP-3961 (peptide)
peptide: Ac-VYCE[dP]KW[Ac6c]EWSC-NH2
modifications: linker 3-12 via mXylylene; lactam 6-9
SMILES: CC(=O)N[C@H](C(=O)N[C@@H](Cc1ccc(O)cc1)C(=O)N[C@H]1CSCc2cccc(c2)CSC[C@@H](C(N)=O)NC(=O)[C@H](CO)NC(=O)[C@H](Cc2c[nH]c3ccccc23)NC(=O)[C@@H]2CCC(=O)NCCCC[C@H](NC(=O)[C@H]3CCCN3C(=O)[C@H](CCC(=O)O)NC1=O)C(=O)N[C@@H](Cc1c[nH]c3ccccc13)C(=O)NC1(CCCCC1)C(=O)N2)C(C)C
B6: 3BP-3958 (peptide)
peptide: Ac-VYCE[dP][Orn]WLEWSC-NH2
modifications: linker 3-12 via mXylylene; lactam 6-9
SMILES: CC(=O)N[C@H](C(=O)N[C@@H](Cc1ccc(O)cc1)C(=O)N[C@H]1CSCc2cccc(c2)CSC[C@@H](C(N)=O)NC(=O)[C@H](CO)NC(=O)[C@H](Cc2c[nH]c3ccccc23)NC(=O)[C@@H]2CCC(=O)NCCC[C@H](NC(=O)[C@H]3CCCN3C(=O)[C@H](CCC(=O)O)NC1=O)C(=O)N[C@@H](Cc1c[nH]c3ccccc13)C(=O)N[C@@H](CC(C)C)C(=O)N2)C(C)C
B7: 3BP-3960 (peptide)
peptide: Ac-VYCE[dP][Dab]WLEWSC-NH2
modifications: linker 3-12 via mXylylene; lactam 6-9
SMILES: CC(=O)N[C@H](C(=O)N[C@@H](Cc1ccc(O)cc1)C(=O)N[C@H]1CSCc2cccc(c2)CSC[C@@H](C(N)=O)NC(=O)[C@H](CO)NC(=O)[C@H](Cc2c[nH]c3ccccc23)NC(=O)[C@@H]2CCC(=O)NCC[C@H](NC(=O)[C@H]3CCCN3C(=O)[C@H](CCC(=O)O)NC1=O)C(=O)N[C@@H](Cc1c[nH]c3ccccc13)C(=O)N[C@@H](CC(C)C)C(=O)N2)C(C)C

For the first test, the target named is human carbonic anhydrase 9 (CAIX) (human, UniProt Q16790 38-459). As to the kind of experiment: FACS competition on HT-29 cells, competitor tracer 3BP-2776; category B = pIC50 7.1-8.0. As for the experimental part:
(§1) CAIX-expressing human HT-29 colorectal cancer cells (DSMZ, RRID: CVCL_0320) were cultured in McCoys's 5A modified medium (Biochrom, #F1015) including 10% fetal calf serum (FCS), 2 mM L-glutamine, 100 U/ml penicillin and 100 μg/mL streptomycin. Cells were detached with Accutase (Biolegend, #423201) and washed in FACS buffer (PBS including 1% FCS). Cells were diluted in FACS buffer to a final concentration of 500.000 cells per ml. 200 μL of the cell suspension were transferred to a u-shaped non-binding 96-well plate (Greiner) and cells were washed in ice-cold FACS buffer.
(§2) When biotinylated compounds were used an additional incubation step with 1 μg/mL APC-Streptavidin (Miltenyi; #130-106-791) in 50 μL FACS buffer for 30 minutes on ice was performed.
(§3) Cells were washed twice with ice-cold FACS buffer and analyzed in an Attune NxT flow cytometer (Thermo Fisher). Median fluorescence intensities (MFI) of the APC/Cy5-channel were calculated by Attune NxT software.
On to {DOTA-APAc″}-VYCE[dP]D[Af3(Im5)]LTWSC-NH2 (linker 3-12 via mXylylene) [3BP-4240], for which the pIC50 lay in the range of 7.1 to 8 pic50. Same read-out and setting: to B1 belongs 7.1 to 8 pic50.

Take B2: the pIC50 was 7.1 to 8 pic50. In turn, {DOTA-APAc}-VYCE[dP]DY(Bn)LTWSC-NH2 (linker 3-12 via mXylylene; not fully specified; reading uncertain) [3BP-4137] displayed a pIC50 of 7.1 to 8 pic50. On the same count and under the same terms, for B3 the value was 7.1 to 8 pic50; for B4, 7.1 to 8 pic50; for {DOTA-APAc}-VYCE[dP]E(AGLU′)WLTWSC-NH2 (linker 3-12 via mXylylene; reading uncertain) [3BP-4120], 7.1 to 8 pic50. The molecule {DOTA-APAc}-VYCE[dP]KWLEWSC-NH2 (linker 3-12 via mXylylene; lactam 6-9; reading uncertain) [3BP-3933] came in with a pIC50 of 7.1 to 8 pic50. Still for that read-out and setting: to {DOTA-APAc}-VYCE[dK]SWLEWSC-NH2 (linker 3-12 via mXylylene; lactam 5-9; reading uncertain) [3BP-4115] belongs 7.1 to 8 pic50. The same measure, in the same setting: to {DOTA-APAc}-VYCE[dP]DW[αMeL]TWSC-NH2 (linker 3-12 via mXylylene; reading uncertain) [3BP-4106] belongs 7.1 to 8 pic50; to B5, 7.1 to 8 pic50; to {DOTA-APAc″}-VYCE[dP]D[Phe(4-tBu)]LTWSC-NH2 (linker 3-12 via mXylylene) [3BP-4160], 7.1 to 8 pic50.

{DOTA(In)}-YCE[dP]KWLEWSC-NH2 (linker 2-11 via mXylylene; lactam 5-8; also: indium complexed by DOTA) [3BP-4053] displayed a pIC50 of 7.1 to 8 pic50. On the same count and under the same terms, for B6 the value was 7.1 to 8 pic50; for {DOTA-APAc}-VYCE[dP][Orn(Me2)]WLTWSC-NH2 (linker 3-12 via mXylylene; reading uncertain) [3BP-4098], 7.1 to 8 pic50; for {DOTA-APAc″}-VYCEG[NGly(3-aminopropyl)]WLEWSC-NH2 (linker 3-12 via mXylylene; lactam 6-9) [3BP-4252], 7.1 to 8 pic50. In the case of {DOTA-APAc″}-VYCE[dP]D[Af3(Oa5)]LTWSC-NH2 (linker 3-12 via mXylylene) [3BP-4239], the pIC50 lay in the range of 7.1 to 8 pic50.

{DOTA-APAc″}-VYCE[dP]DWLTWSC-NH2 (linker 3-12 via Pyridine(2,6-diCH2)) [3BP-4140] gave a pIC50 of 7.1 to 8 pic50. Turning to {DOTA-APAc″}-VYCE[dP]D[Af3(H-pGlu)]LTWSC-NH2 (linker 3-12 via mXylylene) [3BP-4241], the pIC50 lay in the range of 7.1 to 8 pic50.

With {DOTA-APAc″}-VYCE[dP]D[Af3(H2N-Succinyl)]LTWSC-NH2 (linker 3-12 via mXylylene) [3BP-4238], the pIC50 fell in the range of 7.1 to 8 pic50. {DOTA-APAc″}-VYCE[dP]D[Aph(Cp)]LTWSC-NH2 (linker 3-12 via mXylylene) [3BP-4173] had a pIC50 of 7.1 to 8 pic50. As for B7, the pIC50 was 7.1 to 8 pic50.

The next test deals with human carbonic anhydrase IX (CAIX) (human, UniProt Q16790 38-459). As to the kind of experiment: FACS competition, HT-29 cells, tracer 3BP-4149; pIC50 category A: >8.0. On the procedure:
as §1, §2, §3
With {DOTA-APAc}-VYCE[dP]D[Phe(3-NHCO(CH2)3SO2NH2)]LTWSC-NH2 (linker 3-12 via mXylylene; reading uncertain) [3BP-4369], the pIC50 was over 8 pic50. {DOTA-APAc″}-VYCE[dP]D[Af3(HO-Glutar)]LTWSC-NH2 (linker 3-12 via mXylylene) [3BP-4367] showed a pIC50 of over 8 pic50.

Another test deals with T1, Fc-fusion protein of human carbonic anhydrase IX (human, UniProt Q16790 38-414). The test is described as follows: SPR, captured hCAIX-Fc; t1/2 category A: >15.0 min. On the procedure:
Stock solutions of test compounds were prepared by dissolving each compound in DMSO. DMSO stock solution were diluted 1:1000 in Running Buffer without DMSO. […] SPR binding analyses were performed in Single Cycle Kinetic (SCK) mode at 25° C.
For each test compound, SPR raw data in the form of resonance units (RU) were plotted as sensorgrams using the Biacore™ T200 control software. The signal from the blank sensorgram was subtracted from that of the test compound sensorgram (blank corrected). The blank corrected sensorgram was corrected for baseline drift by subtracting the sensorgram of a SCK run without the test compound (running buffer only). […] Raw data and fit results were imported as text files in IDBS. The pKD value (negative decadic logarithm of dissociation constant) was calculated in the IDBS excel template.
On the technique in general: In SPR one partner is held on a chip, and binding of the other changes the refractive index at the surface.
On to {DOTA-APAc}-VYCE[dP]D[Phe(3-NHCO(CH2)3SO2NH2)]LTWSC-NH2 (linker 3-12 via mXylylene; reading uncertain) [3BP-4369], for which the “t1/2 (half-life of the complex, SPR)” value was over 15 min. Still for that read-out and setting: to {DOTA-APAc″}-VYCE[dP]D[Af3(HO-Glutar)]LTWSC-NH2 (linker 3-12 via mXylylene) [3BP-4367] belongs over 15 min.

The next test addresses T1, Fc-fusion protein of human carbonic …. As to the kind of experiment: SPR, captured hCAIX-Fc; pKD category A: >8.0.
Molecule {DOTA-APAc}-VYCE[dP]D[Phe(3-NHCO(CH2)3SO2NH2)]LTWSC-NH2 (linker 3-12 via mXylylene; reading uncertain) [3BP-4369] yielded a pKD of over 8 pkd.

{DOTA-APAc″}-VYCE[dP]D[Af3(HO-Glutar)]LTWSC-NH2 (linker 3-12 via mXylylene) [3BP-4367]: the pKD is over 8 pkd.
